Measured values taken from PMC2186165.

Target: B lymphocyte surface IgM (mouse (endogenous in spleen cells))
Assay: cocapping

Chain of B lymphocyte surface IgM (mouse (endogenous in spleen cells)) (P01872 whole entry): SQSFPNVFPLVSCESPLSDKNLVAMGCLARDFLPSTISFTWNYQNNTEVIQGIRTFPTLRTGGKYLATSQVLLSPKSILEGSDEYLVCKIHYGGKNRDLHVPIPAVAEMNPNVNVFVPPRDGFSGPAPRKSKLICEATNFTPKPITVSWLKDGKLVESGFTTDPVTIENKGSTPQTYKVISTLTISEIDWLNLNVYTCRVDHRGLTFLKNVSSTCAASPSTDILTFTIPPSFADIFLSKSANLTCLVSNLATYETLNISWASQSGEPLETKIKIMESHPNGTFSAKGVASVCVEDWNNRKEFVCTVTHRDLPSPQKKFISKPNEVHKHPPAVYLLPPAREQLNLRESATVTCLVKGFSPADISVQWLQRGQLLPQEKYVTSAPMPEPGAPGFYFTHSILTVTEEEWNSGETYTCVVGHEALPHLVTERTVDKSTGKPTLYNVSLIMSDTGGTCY

% of B lymphocytes with capped sIgM that also had capped FcGR (12 experiments): 86%
% of FcGR-positive cells with FcGR capped (Table III, experiment B, part 4): 62%
% of FcGR-positive cells with FcGR capped (Table IV, part 4): 46%
Substance: B lymphocyte Fc IgG receptor (from UniProt P08101 30-330)
